Paper PMC9394474

B1: unnamed (parent)
chain 1: TIEALFQ
chain 2: not shown

Variants of: B1
Test: ITC
Conditions: with partner chain of the complex shown

With chain 1 T1A as the variant, how does the Kd read?
The Kd was 17 µM.
